Experimental data as given in the supplement of paper PMC10567573.

B1: TRIM63 (parent)
chain: QRITQEQEKKLSFIEALIQQYQEQ

Variants of: B1
Assay: protein stability index of a GFP-peptide fusion (GPS, HEK-293T) (PSI 1-6); higher = more stable
Details: c terminus: a fixed tail appended
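Further: lentivirally expressed fusions sorted by FACS into six bins by GFP to DsRed ratio, PSI derived from sequencing read proportions per bin multiplied by bin number.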

Protein stability index, by site and new letter:
Q19: E 2.56, G 2.51, K 2.48, C 2.6, R 1.38, F 1.91, I 2.73, Y 1.64, W 2.62, A 1.8, T 2.75, D 2.46, H 2.04, V 1.81, P 3.19, N 2.25
Y21: L 1.6, V 2.32, I 1.84, S 3.19, N 4.41, K 3.8, P 4.33, C 1.75, E 2.11, T 3.23, H 2.55, M 1.98, W 1.8, F 1.76, A 3.38, G 3.61, Q 2.75, R 3.91
S12: Q 2.62, T 3.23, P 3.91, Y 1.85, W 1.57, V 1.81, N 2.74
Q22: A 2.36
A16: D 3.16, I 3.03, F 2.57, Y 2.31, P 4.08, V 1.76, M 3.77, L 1.7, E 2.95, K 2.25, H 2.45, S 2.45, G 3.33, N 2.69, C 2.46, W 2.37, R 2.63, T 2.15, Q 1.83
I18: F 2.74, H 3.6, K 2.42, T 3.31, A 2.65, Y 3.29, M 2.22, Q 1.81, S 2.94, E 2.2, V 3.12, P 4.54, N 3.57, R 3.4, L 2.3, W 2.7, C 2.67, D 2.92, G 3.67
Q20: E 1.09, D 2.35, R 2.28, N 2.93, V 1.42, G 3.11, M 2.36, I 1.67, C 2.23, L 2.43, W 2.01, A 2.11, T 2.67, P 3.43, F 2.6, K 5.33, S 2.4
I14: G 4.31, D 4.69, F 3, N 4.7, A 2.41, S 3.48, L 2.23, C 2.02, R 3.15, T 2.35, Q 3.22, H 3.2, Y 2.87, M 2.79, E 2.77, P 4.55
E15: N 2.04, K 2.11, R 2.16, W 2.5, G 2.44, P 3.48, Q 2.23, Y 2.34, S 2.12, A 2.82, D 2.19, I 1.6, H 2.28, T 2.32, L 2.56, C 1.44, F 1.92
L17: H 3.06, I 2.28, D 4.58, E 4.81, C 2.23, Y 1.92, M 2.93, T 3.31, Q 4.03, V 2.2, K 3.75, F 2.62, P 4.63, R 4.34, A 3.42, S 4.13, G 4.54, N 4.73
F13: W 1.68, Q 4.33, V 3.93, K 3.59, N 4.66, I 2.62, H 4.14, R 3.91, G 4.6, T 4.78, M 3.25, C 3.56, E 4.78, P 4.68, D 4.83, A 4.47, Y 2.62, S 4.52, L 2.72
